Where a chain is given by its changes, count along the chain named. Names may count otherwise. Like-named read-outs stand apart in the source and are kept apart here. Blank lines part the entries; values can stand above or below the binder they belong to.
Legend:
Test in all cases: cell-based or functional assay
[1] = biological target: T1, mouse CXCR3 (mCXCR3) expressed on Ba/F3 transfectant cells (mouse, UniProt O88410 1-367)
T1 sequence (looked up): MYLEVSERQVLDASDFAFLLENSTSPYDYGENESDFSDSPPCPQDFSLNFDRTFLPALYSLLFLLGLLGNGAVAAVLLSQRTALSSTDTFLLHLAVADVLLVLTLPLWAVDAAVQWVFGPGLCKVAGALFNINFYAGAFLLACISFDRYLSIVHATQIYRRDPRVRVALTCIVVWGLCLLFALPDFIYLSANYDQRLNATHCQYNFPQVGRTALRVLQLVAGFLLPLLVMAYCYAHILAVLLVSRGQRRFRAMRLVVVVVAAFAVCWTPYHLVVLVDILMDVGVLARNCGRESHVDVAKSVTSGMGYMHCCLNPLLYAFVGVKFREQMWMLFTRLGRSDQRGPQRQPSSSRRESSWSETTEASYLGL

[2] = biological target: T1, mouse CXCR3 (mCXCR3) expressed on Ba/F3 …; remark: listed apart in the source
[3] = biological target: T1, mouse CXCR3 (mCXCR3) expressed on Ba/F3 …; remark: listed apart in the source
[4] = biological target: T1, mouse CXCR3 (mCXCR3) expressed on Ba/F3 …; remark: listed apart in the source
[5] = biological target: T1, mouse CXCR3 (mCXCR3) expressed on Ba/F3 …; remark: listed apart in the source

cell migration-inducing activity (BaF3/mCXCR3 transwell) at 3 nM, relative to hCXCL10R75A Fc fusion = 100% [1]: 196% | cell migration-inducing activity (BaF3/mCXCR3 transwell) at 10 nM, relative to hCXCL10R75A Fc fusion = 100% [1]: 150% | cell migration-inducing activity (BaF3/mCXCR3 transwell) at 30 nM, relative to hCXCL10R75A Fc fusion = 100% [1]: 106% | cell migration-inducing activity (BaF3/mCXCR3 transwell) at 100 nM, relative to hCXCL10R75A Fc fusion = 100% [1]: 98% | cell migration-inducing activity (BaF3/mCXCR3 transwell) at 300 nM, relative to hCXCL10R75A Fc fusion = 100% [1]: 116% | cell migration-inducing activity (BaF3/mCXCR3 transwell) at 1000 nM, relative to hCXCL10R75A Fc fusion = 100% [1]: 80% | cell migration-inducing activity (BaF3/mCXCR3 transwell) at 3 nM, relative to hCXCL10R75A Fc fusion = 100% [2]: 196% | cell migration-inducing activity (BaF3/mCXCR3 transwell) at 10 nM, relative to hCXCL10R75A Fc fusion = 100% [2]: 150% | cell migration-inducing activity (BaF3/mCXCR3 transwell) at 30 nM, relative to hCXCL10R75A Fc fusion = 100% [2]: 106% | cell migration-inducing activity (BaF3/mCXCR3 transwell) at 100 nM, relative to hCXCL10R75A Fc fusion = 100% [2]: 98% | cell migration-inducing activity (BaF3/mCXCR3 transwell) at 300 nM, relative to hCXCL10R75A Fc fusion = 100% [2]: 116% | cell migration-inducing activity (BaF3/mCXCR3 transwell) at 1000 nM, relative to hCXCL10R75A Fc fusion = 100% [2]: 80%
B1: hCXCL10R75A.0642-G1T4k.one//VHn-G1T4h.one.H435R (Fc fusion)
chain 1: VPLSRTVRCTCISISNQCVNPRSLEKLEIIPASQFCPRVEIIATMKKKGEKRCLNPESKCIKNLLKAVSKERSKASPEPKSSDKTHTCPPCPAPELRRGPSVFLFPPKPKDTLMISRTPEVTCVVVDVSHEDPEVKFNWYVDGVEVHNAKTKPREEQYNSTYRVVSVLTVLHQDWLNGKEYKCKVSNKGLPSSIEKTISKAKGQPREPQVCTLPPSREEMTKNQVSLWCLVKGFYPSDIAVEWESNGQPENNYKTTPPVLDSDGSFFLYSKLTVDKSRWQEGNVFSCSVMHEALHNHYTQKSLSLSP
chain 2: EPKSSDKTHTCPPCPAPELRRGPSVFLFPPKPKDTLMISRTPEVTCVVVDVSHEDPEVKFNWYVDGVEVHNAKTKPREEQYNSTYRVVSVLTVLHQDWLNGKEYKCKVSNKGLPSSIEKTISKAKGQPREPQVYTLPPSRCEMTKNQVSLSCAVKGFYPSDIAVEWESNGQPENNYKTTPPVLDSDGSFFLVSKLTVDKSRWQEGNVFSCSVMHEALHNRYTQKSLSLSP

cell migration-inducing activity (BaF3/mCXCR3 transwell) at 3 nM, relative to hCXCL10R75A Fc fusion = 100% [3]: 126% | cell migration-inducing activity (BaF3/mCXCR3 transwell) at 10 nM, relative to hCXCL10R75A Fc fusion = 100% [3]: 100% | cell migration-inducing activity (BaF3/mCXCR3 transwell) at 30 nM, relative to hCXCL10R75A Fc fusion = 100% [3]: 129% | cell migration-inducing activity (BaF3/mCXCR3 transwell) at 100 nM, relative to hCXCL10R75A Fc fusion = 100% [3]: 141% | cell migration-inducing activity (BaF3/mCXCR3 transwell) at 300 nM, relative to hCXCL10R75A Fc fusion = 100% [3]: 124% | cell migration-inducing activity (BaF3/mCXCR3 transwell) at 1000 nM, relative to hCXCL10R75A Fc fusion = 100% [3]: 26%
B2: hCXCL10R75A.0643-G1T4k.one//VHn-G1T4h.one.H435R (Fc fusion)
chain 1: B1 chain 1 with V1Y, P2V, C18P, C60A
chain 2: B1 chain 2

cell migration-inducing activity at 3 nM, relative to hCXCL10R75A.0670 Fc fusion = 100% [4]: 209% | cell migration-inducing activity at 10 nM, relative to hCXCL10R75A.0670 Fc fusion = 100% [4]: 132% | cell migration-inducing activity at 30 nM, relative to hCXCL10R75A.0670 Fc fusion = 100% [4]: 110% | cell migration-inducing activity at 100 nM, relative to hCXCL10R75A.0670 Fc fusion = 100% [4]: 102% | cell migration-inducing activity at 300 nM, relative to hCXCL10R75A.0670 Fc fusion = 100% [4]: 93% | cell migration-inducing activity at 1000 nM, relative to hCXCL10R75A.0670 Fc fusion = 100% [4]: 49%
B3: hCXCL10R75A.0613-G1T4k.one//VHn-G1T4h.one.H435R (Fc fusion)
chain 1: B1 chain 1 with V1Y, P2V, V7P
chain 2: B1 chain 2

cell migration-inducing activity (BaF3/mCXCR3 transwell) at 3 nM, relative to hCXCL10R75A Fc fusion = 100% [2]: 174% | cell migration-inducing activity (BaF3/mCXCR3 transwell) at 10 nM, relative to hCXCL10R75A Fc fusion = 100% [2]: 144% | cell migration-inducing activity (BaF3/mCXCR3 transwell) at 30 nM, relative to hCXCL10R75A Fc fusion = 100% [2]: 109% | cell migration-inducing activity (BaF3/mCXCR3 transwell) at 100 nM, relative to hCXCL10R75A Fc fusion = 100% [2]: 107% | cell migration-inducing activity (BaF3/mCXCR3 transwell) at 300 nM, relative to hCXCL10R75A Fc fusion = 100% [2]: 153% | cell migration-inducing activity (BaF3/mCXCR3 transwell) at 1000 nM, relative to hCXCL10R75A Fc fusion = 100% [2]: 163%
B4: hCXCL10R75A.0644-G1T4k.one//VHn-G1T4h.one.H435R (Fc fusion)
chain 1: B1 chain 1 with P2V
chain 2: B1 chain 2

cell migration-inducing activity at 3 nM, relative to hCXCL10R75A.0670 Fc fusion = 100% [4]: 100% | cell migration-inducing activity at 10 nM, relative to hCXCL10R75A.0670 Fc fusion = 100% [4]: 100% | cell migration-inducing activity at 30 nM, relative to hCXCL10R75A.0670 Fc fusion = 100% [4]: 100% | cell migration-inducing activity at 100 nM, relative to hCXCL10R75A.0670 Fc fusion = 100% [4]: 100% | cell migration-inducing activity at 300 nM, relative to hCXCL10R75A.0670 Fc fusion = 100% [4]: 100% | cell migration-inducing activity at 1000 nM, relative to hCXCL10R75A.0670 Fc fusion = 100% [4]: 100% | cell migration-inducing activity (BaF3/mCXCR3 transwell) at 3 nM, relative to hCXCL10R75A Fc fusion = 100% [5]: 195% | cell migration-inducing activity (BaF3/mCXCR3 transwell) at 10 nM, relative to hCXCL10R75A Fc fusion = 100% [5]: 146% | cell migration-inducing activity (BaF3/mCXCR3 transwell) at 30 nM, relative to hCXCL10R75A Fc fusion = 100% [5]: 132% | cell migration-inducing activity (BaF3/mCXCR3 transwell) at 100 nM, relative to hCXCL10R75A Fc fusion = 100% [5]: 132% | cell migration-inducing activity (BaF3/mCXCR3 transwell) at 300 nM, relative to hCXCL10R75A Fc fusion = 100% [5]: 127% | cell migration-inducing activity (BaF3/mCXCR3 transwell) at 1000 nM, relative to hCXCL10R75A Fc fusion = 100% [5]: 24%
B5: hCXCL10R75A.0670-G1T4k.one//VHn-G1T4h.one.H435R (Fc fusion)
chain 1: B1 chain 1 with V1Y, P2V
chain 2: B1 chain 2
